Laboratory results reported in the supplement of paper PMC11865577.

Assays:
Experiment in all cases: pull-down binding Z-score (relative to library population); higher = stronger binding
Conditions in all cases: RNA library: Library-2
[1] = test system: TO-N3-2 (biotin conjugate)
Outline: (§1)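 To score binding, a beads-only signal was subtracted, barcoded replicate probes were averaged with the highest and lowest dropped, and the value was converted to a Z-score using the library mean and standard deviation. The input was 1 μg of Cy5- or Cy3-end-labelled RNA library, heat-folded in phosphate/NaCl/KCl buffer and mixed for 60 min at 25 °C with streptavidin beads carrying 100 pmol of biotin-conjugated small molecule. Bound RNA was eluted in hot SDS and hybridised to a DNA barcode microarray at 55.5 °C for 20 h.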

[2] = test system: TO-3-N3-2 (biotin conjugate)
Outline: as §1

[3] = test system: TO-N3 (biotin conjugate)
Outline: as §1

[4] = test system: TO-3-N3 (biotin conjugate)
Outline: as §1

Sequence | pull-down binding Z-score [1] | pull-down binding Z-score [2] | pull-down binding Z-score [3] | pull-down binding Z-score [4]
CACAUCUAGGUUUCGUCCGGGUGUG [SARS-CoV-2-Conserved-Structured-16_Interval-158-277_Motif_2] | -0.319 | -0.459 | 0.254 | 0.468
GUUGACAGGACACGAGUAACUCGUCUAUCUUCUGCAGGCUGCUUACGGUUUCGUCCGUGUUGCAGCCGAUCAUCAGC | 1.31 | -0.335 | 0.461 | -0.282
GGGUUGGGUUGGGUUGGGUUGGGUUGGGUU [G4_r(GGGUU)6] | 5.08 | 10.1 | 6.75 | 7.99
AUGGUAAGUGCGAUACUUACCUG [U1snRNP5ss-24] | 0.974 | -0.139 | -0.213 | -0.32
GUCAGUGAAACACAGGGAACAGAGAAACUGAC [IAV_invivo_PB2_1_Motif_24+IAV_invivo_PB2_1_Motif_24] | 0.355 | 0.282 | -0.399 | -0.496
CCCUGAACACAAUGACCAAAGAUGCUGAGAGAGGG [IAV_invivo_PB1_2_Motif_12+IAV_invivo_PB1_2_Motif_12] | 0.884 | 0.103 | 0.143 | -0.218
CCUAAUGGAUGG [IAV_invivo_NA_6_Motif_15+IAV_invivo_NA_6_Motif_15] | -0.501 | -0.746 | -0.777 | -0.555
UGCUUUGGUGUAAAGAUGGCCAUGUAGAAACAUUUUACCCAAAAUUACAAUCUAGUCAAGCGUGGCAACCGGGUGUUGCUAUGCCUAAUCUUUACAAAAUGCA | 0.252 | -0.00692 | 0.0858 | -0.104
GCGCAGCCAGAAACUGGCCGCGC [mismatch-AC] | -1 | -0.295 | -0.746 | -0.43
GUAGACAAUUCUAGUCUUAC [SHAPE_invitro_SARS-CoV-2_Motif_131] | -0.316 | -0.243 | 0.441 | 0.702
GCUCAGGAUGGUAAUGCUGCUAUCAGC | 1.05 | -0.00388 | 0.203 | -0.137
GGAUUGUACAGAAAGUGUGUUAAAUCC [SHAPE_invivo_SARS-CoV-2_Motif_47] | -0.185 | 0.139 | -0.222 | -0.22
GACAAUGUCUUAUCUACUUUUAUUUCAGCAGCUCGGCAAGGGUUUGUUGAUUCAGAUGUAGAAACUAAAGAUGUUGUU | -0.776 | -0.111 | -0.599 | -0.56
CCCCAAAAGAAAUUAUCUUCUUAGAGGG | 0.109 | -0.623 | 0.286 | -0.165
ACAGAAUGCUGU | -1.19 | -0.472 | -1.14 | -0.821
CAACAAUGUGUGAUAUCAGACAACUACUAUUUGUAGUUGAAGUUGUUG | -0.217 | 0.0207 | -0.104 | -0.133
AGGUCCAGACAUGUUCCUCGGAACUUGUCGGCGUUGUCCU | 0.332 | -0.441 | -0.838 | -0.757
GGUUAUAAGAAACC | -0.964 | -0.849 | -0.351 | -0.083
GGAUGUCAAUCC [IAV_invivo_PB1_2_Motif_2+IAV_invivo_PB1_2_Motif_2] | -0.856 | -0.17 | 0.0736 | 0.302
ACAUCAGCUUGUGUUUUGGCUGCUGAAUGU | -0.485 | -0.534 | -0.774 | -0.623
ACAGUCUGUACCGUCUGCGGUAUGUGGAAAGGUUAUGGCUGU | 0.213 | -0.231 | -0.273 | -0.239
GGCUGUAGUUGUGAUCAACUCCGCGAACCCAUGCUUCAGUCAGCUGAUGCACAAUCGUUUUUAAACGGGUUUGCGGUGUAAGUGCAGCC [DMSMaPseq_invitro_SARS-CoV-2_Motif_241] | 0.388 | -0.0355 | -0.133 | -0.355
AUUAUGAGGACUUUUAAAGUUUCCAUUUGGAAUCUUGAUUACAUCAUAAACCUCAUAAU | -1.25 | -0.377 | -1.39 | -1.1

Sequence | pull-down binding Z-score [1] | pull-down binding Z-score [2] | pull-down binding Z-score [3] | pull-down binding Z-score [4]
GCUUGGAGAAAAGC [SHAPE_invitro_SARS-CoV-2_Motif_326] | -0.491 | -0.278 | -0.705 | -0.536
CUACAAAGCAACCAUGAUCUGUAUUGUCAAGUCCAUGGUAAUGCACAUGUAG | 0.374 | -0.092 | -0.227 | -0.654
CCUACUGAUGG [IAV_invivo_PA_3_Motif_12+IAV_invivo_PA_3_Motif_12] | -0.632 | -0.207 | -0.319 | 0.0894
GACAUGUUCCUCGGAACUUGUC | -0.965 | -0.631 | -1.35 | -0.926
GGAGGGCCUUCUACGGAAGGAGUGCC [IAV_invivo_M1_M2_7_Motif_16+IAV_invivo_M1_M2_7_Motif_16] | 1.57 | -0.0132 | 0.646 | 0.296
UAAGGAGAGUGUUCAGACAUUCUUUAAGCUUG [DMSMaPseq_invitro_SARS-CoV-2_Motif_43] | -0.426 | -0.244 | -0.507 | -0.408
GUUGCUGUACCUACAGGUUAUGUUGAUACACCUAAUAAUACAGAUUUUUCCAGAGUUAGUGCUAAACCACCGCCUGGAGAUCAAU [SHAPE_invitro_SARS-CoV-2_Multi_51_ComplexLevel_1] | 0.329 | -0.139 | 0.691 | 0.475
UCCGUAAGUAGGAUACUUACCUG [U1snRNP5ss-21] | -0.337 | -0.419 | -0.61 | -0.611
AAUGUAGUAGAAUUAUACCUGCACGUGCUCGUGUAGAGUGUUUUGAUAAAUUCAAAGUGAAUUCAACAUUAGAACAGUAUGUCUUUUGUACUGUAAAUGCAUU | -0.209 | 0.0794 | 0.182 | 0.059
GUCACACCUUCGGGAACGUGGUUGAC | 0.518 | -0.338 | -0.0943 | -0.558
CACCCGCGAAGAAGCUAUAAGACAUGUACGUGCAUGGAUUGGCUUCGAUGUCGAGGGGUG | 0.0562 | -0.23 | 0.845 | 0.929
GUAAUGAUCCAUUUUUGGGUGUUUAUUAC [DMSMaPseq_invitro_SARS-CoV-2_Motif_387] | -0.998 | -0.129 | -0.308 | -0.1
GCCGAAUACCAUAAUGAAUCUGGC [SHAPE_invitro_SARS-CoV-2_Motif_29] | -0.0249 | -0.529 | -0.479 | -0.597
AAUAACUUACCUUUUAAGUUGACAUGUGCAACUACUAGACAAGUUGUU | -1.52 | -0.415 | -1.21 | -0.907
AGUUCAAGAACUUUACUCUCCAAUUUUUCUUAUUGUUGCGGCAAUAGUGUUUAUAACACUUUGCUUCACACUCAAAAGAAAGACAGAAUGAUUGAACU | -1.13 | -0.46 | -1.27 | -0.889
AUGCUUGGAACAGGAAGAGAAUCAGCAACUGUGUUGCUGAUUAUUCUGUCCUAUAUAAUUCCGCAU [DMSMaPseq_invitro_SARS-CoV-2_Motif_399] | -0.139 | -0.327 | -0.459 | -0.314
CCUUUAGUACCUUUCUGGAUAACAAUUGCUUAUAUCAUUUGUAUUUCCACAAAGCAUUUCUAUUGG | -0.78 | -0.843 | -1.06 | -0.884
GCAGUAAGUCUGAUACUUACCUG [U1snRNP5ss-9] | 0.892 | 0.129 | 0.947 | 0.85
GCAGUGGCUAACUAACAUCUUUGGCACUGU | -0.175 | 0.0264 | -0.244 | -0.125
GGCGUAAGUCUGAUACUUACCUG [U1snRNP5ss-10] | 1.08 | 0.0886 | 0.668 | 0.212
GCCAGUUGGAGGC [IAV_invivo_PB1_2_Motif_15+IAV_invivo_PB1_2_Motif_15] | 0.153 | -0.201 | -0.233 | -0.0995
CAGCAAGAACUG [DMSMaPseq_invitro_SARS-CoV-2_Motif_202] | -0.724 | -0.578 | -0.633 | -0.324
GCGCUGCCAGAAACUGGCGAGCGC [bulge-G] | -0.578 | -0.354 | -0.593 | -0.426

Sequence | pull-down binding Z-score [1] | pull-down binding Z-score [2] | pull-down binding Z-score [3] | pull-down binding Z-score [4]
ACCUUGAAGGAAAACAGGGU | -0.135 | 0.457 | 0.58 | 0.525
GGUUGGGAAAUUGUUAAAUUUAUCUCAACC | -0.802 | -0.155 | -0.616 | -0.472
AUUGACAUUAAUGGCAAUCUUCAUCCAGAUUCUGCCACUCUUGUUAGU [DMSMaPseq_invitro_SARS-CoV-2_Motif_73] | -0.113 | -0.197 | -0.723 | -0.785
ACCUGCUCAGUAUGAACUUAAGCAUGGU | -0.0122 | -0.184 | -0.561 | -0.339
GAAGGUCUUAAUGACAACCUUC [SHAPE_invitro_SARS-CoV-2_Motif_33] | -1.39 | -0.502 | -1.28 | -0.78
ACCAAUGUGCUAUGAGGCCCAAUUUCACUAUUAAGGGUUCAUUCCUUAAUGGUUCAUGUGGUAGUGUUGGU [SHAPE_invivo_SARS-CoV-2_Multi_27_ComplexLevel_1] | -0.569 | -0.186 | -0.295 | -0.261
CCUAUCAAUGG [IAV_invivo_PB2_1_Motif_26+IAV_invivo_PB2_1_Motif_26] | -0.376 | -0.212 | 0.11 | 0.191
AGGUAAGUAUGAUACUUACCUG [U1snRNP5ss-2] | -0.8 | -0.581 | -0.856 | -0.742
GGUACGUUAAUAGUUAAUAGCGUACUUCUUUUUCUUGCUUUCGUGGUAUUCUUGCUAGUUACACUAGCCAUCCUUACUGCGCUUCGAUUGUGUGCGUACU | -0.294 | -0.0614 | 0.41 | 0.654
CAUCAUAUGCAGCUUUUGCUACUGCUCAAGAAGCUUAUGAGCAGGCUGUUGCUAAUGGUG | -0.238 | -0.315 | -0.917 | -1.04
CACCACUUAACCGAAAUUAUGUCUUUACUGGUUAUCGUGUAACUAAAAACAGUAAAGUACAAAUAGGAGAGUACACCUUUGAAAAAGGUGACUAUGGUG | -0.309 | -0.419 | -0.623 | -0.803
ACGUACUGCCACUAAAGCAUACAAUGUAACACAAGCUUUCGGCAGACGU | 0.871 | 0.565 | 0.464 | 0.386
UAUUGAAAUCAAUA | -1.72 | -0.77 | -0.987 | -0.553
CCCGGAAAUAGCAGGAAGACCCAAAGUAAGAGAUCAAGCUGGG [IAV_invivo_HA_4_Motif_10+IAV_invivo_HA_4_Motif_10] | 0.433 | 0.505 | -0.157 | -0.309
UGGCAUUAAUGCUUCAGUUGUAAACAUUCAAAAAGAAAUUGACCGCCUCAAUGAGGUUGCCA | -0.663 | -0.207 | -1.1 | -0.964
CUCAGUCCAAGAUGGUAUUUCUACUACCUAGGAACUGGG [SHAPE_invivo_SARS-CoV-2_Motif_544] | -0.627 | -0.217 | -0.646 | -0.642
CCAAGACAUGUGAUCUGCACCUCUGAAGACAUGCUUAACCCUAAUUAUGAAGAUUUACUCAUUCGUAAGUCUAAUCAUAAUUUCUUGG [DMSMaPseq_invitro_SARS-CoV-2_Multi_33_ComplexLevel_1] | 0.229 | -0.101 | 0.332 | 0.403
AACUUUAAUGUU [SHAPE_invitro_SARS-CoV-2_Motif_263] | -1.33 | -0.765 | 0.00196 | 0.212
CUGCUUUUGGCUUAGUUGCAG | -0.231 | 0.206 | 0.125 | 0.285
CCUCUGACUAAGGGG [IAV_invivo_M1_M2_7_Motif_4+IAV_invivo_M1_M2_7_Motif_4] | -1.25 | -0.414 | -0.504 | -0.159
AGGUCAAAUCAAUGAUAUGAUUUUAUCU [SHAPE_invitro_SARS-CoV-2_Motif_388] | -1.35 | -0.624 | -1.31 | -0.87
